Measured values as given in patent publication US20050021237A1, “Method and apparatus for evaluating new chemical entities” (priority 2003, published 2005).

What was measured:
[1] = primates; cited from earlier work
[2] = Phase I studies (Clinical Investigator's Brochure); assay type: in vivo, humans; settings: from Phase I doses ranging from 12-48 μg/kg/hour (48/12)
From the text: (§1) In the absence of more accurate TI data, this value is used in the example. LY203638 is classified as a cardiovascular agent (since there are no prior data for hematologic agents and it is not antimicrobial). The limitations in acquiring appropriate data for LY203638 underscores the requirement to have unfettered access to the NCE's data in order to optimize Pharminator's predictive accuracy.

[3] = Toxicology studies in primates; assay type: in vivo; settings: Phase I and primate toxicology data taken together
From the text: as §1

## Recombinant human activated protein C [LY203638]
[1]
  dose at which toxic effects observed: 8 mg/m^2/hour
  no-observed-adverse-effect level: 2 mg/m^2/hour
[2]
  therapeutic index (TI): at least 4
[3]
  therapeutic index (TI): approximately 4
